Measured values published in the supplement of paper PMC7125110.
± gives the standard error. Fewer inactive variants are shown than the library holds.

B1: glmS ribozyme (parent)
chain: AUAAAAGCGCCAGAACUACAGAAAUGUAGUUGACGAGGAGGAGGUUUAUCGAAUUUUCGGCGGAUGCCUCCAAA

Columns and labels:
Settings in all cases: with glucosamine-6-phosphate
glucosamine-6-phosphate [1] = variants of: B1; assay: self-cleavage kobs at 640 uM GlcN6P; higher = faster cleavage; RNA array
Method in brief: (§1)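 Barcoded ribozyme variants on sequenced MiSeq chips were transcribed in situ by E. coli RNA polymerase and followed at 37 °C through a hybridised Cy3 probe. Glucosamine-6-phosphate at 40 μM to 10 mM in HEPES/KCl/Mg(OAc)2 buffer was flowed in, and tiles were imaged over ~14 h. Signals were normalised to baseline and to non-cleaving reference variants, and per-tile medians were fit to one- or two-exponential decays to give kobs. Weighted Michaelis–Menten fits across concentrations gave kcat and KM.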

glucosamine-6-phosphate [2] = variants of: B1; assay: self-cleavage kobs at 2500 uM GlcN6P; higher = faster cleavage; RNA array
Method in brief: as §1

glucosamine-6-phosphate [3] = variants of: B1; assay: self-cleavage kobs at 10000 uM GlcN6P; higher = faster cleavage; RNA array
Method in brief: as §1

Variant | self-cleavage kobs at 640 uM GlcN6P (glucosamine-6-phosphate [1]) [s⁻¹] | self-cleavage kobs at 2500 uM GlcN6P (glucosamine-6-phosphate [2]) [s⁻¹] | self-cleavage kobs at 10000 uM GlcN6P (glucosamine-6-phosphate [3]) [s⁻¹]
U2C G32C G60U G63C | < 1e-05 | – | –
G38A G41U A42C U45C U54G C68G | < 1e-05 | – | –
G29A A36C | < 1e-05 | < 1e-05 | < 1e-05
A6G U46C U47A | < 1e-05 | – | –
A6U G35C A64C | < 1e-05 | < 1e-05 | –
G32U G62A C67A | < 1e-05 | – | –
A6C G40C G60U | < 1e-05 | – | –
G9U G29U G44A | < 1e-05 | < 1e-05 | –
A12G G37U A48G | < 1e-05 | < 1e-05 | –
A36U U45A G63U | < 1e-05 | < 1e-05 | –
G9A G41A A53U | < 1e-05 | < 1e-05 | –
A39C U45G U56G | 7.85e-05 ± 2.3e-05 | – | –
A39U U45G A52G C70A | < 1e-05 | – | –
U31G U55A U69G | 7.53e-05 ± 1.6e-05 | 7.74e-05 ± 2.2e-05 | –
G13U U30G G35C | < 1e-05 | < 1e-05 | < 1e-05
C11U A33C G41A | < 1e-05 | – | –
U46G U57C | < 1e-05 | – | –
A39U G44U U47C G51U | < 1e-05 | – | –
A6U G44U G51U U54A | < 1e-05 | < 1e-05 | –
C10U A14U C16U C68G | 0.00169 ± 0.00051 | 0.000319 ± 0.00011 | –
C16U G59C U65G | < 1e-05 | < 1e-05 | –
U55C C58A C70U | 4.34e-05 ± 1.9e-05 | 5.54e-05 ± 1.5e-05 | –

Variant | self-cleavage kobs at 640 uM GlcN6P (glucosamine-6-phosphate [1]) [s⁻¹] | self-cleavage kobs at 2500 uM GlcN6P (glucosamine-6-phosphate [2]) [s⁻¹] | self-cleavage kobs at 10000 uM GlcN6P (glucosamine-6-phosphate [3]) [s⁻¹]
C8G C11U G32U G59U | < 1e-05 | < 1e-05 | –
A42C A48U C68G | < 1e-05 | – | –
G7C A15U U45A | < 1e-05 | < 1e-05 | –
G38A A52G C68G | 7.2e-05 ± 2.5e-05 | – | –
A15C G44C U56C | < 1e-05 | – | –
C19A U54C C58A C68G | 9.88e-05 ± 2.4e-05 | 0.00036 ± 0.0001 | –
A12U U30C A53C | 0.000316 ± 0.0001 | 0.000389 ± 0.00012 | 0.00132 ± 0.00056
U46A C50G C58G | < 1e-05 | – | –
G13U A14U G44C A52G C58G | < 1e-05 | – | –
A52G U54A C68U | 6.73e-05 ± 2e-05 | – | –
A6G U31G G35A U65C | < 1e-05 | < 1e-05 | –
A15C U54C G66U C70U | 7.59e-05 ± 1.8e-05 | 0.000351 ± 9.2e-05 | –
G32A C50U C70G | 0.000126 ± 4.6e-05 | – | –
C10G U47C U49C U55G | < 1e-05 | – | –
A6C C16A U31C | < 1e-05 | < 1e-05 | –
C10G C11G G32C G59C C67G | < 1e-05 | – | –
A6C A12U G51U U54G | < 1e-05 | < 1e-05 | –
A14U G44U U54A G59C C68U | < 1e-05 | < 1e-05 | –
A15G G51U G63U C68G | 9.97e-05 ± 4.5e-05 | 0.000286 ± 0.00011 | –
C50A G51U G59A U69A | 0.000511 ± 0.00021 | – | –
U30G U55A | 0.0024 ± 0.00049 | 0.00295 ± 0.00084 | –
G9A C10U C68A | < 1e-05 | – | –

Variant | self-cleavage kobs at 640 uM GlcN6P (glucosamine-6-phosphate [1]) [s⁻¹] | self-cleavage kobs at 2500 uM GlcN6P (glucosamine-6-phosphate [2]) [s⁻¹] | self-cleavage kobs at 10000 uM GlcN6P (glucosamine-6-phosphate [3]) [s⁻¹]
C16A C50G G62A A64U | 6.11e-05 ± 2.7e-05 | 9.04e-05 ± 3.5e-05 | –
C34A C67A | < 1e-05 | – | < 1e-05
C50A U54C U57C C70A | < 1e-05 | – | –
A14U U47C C58G C68G | 5.55e-05 ± 1.6e-05 | 0.000171 ± 4e-05 | –
C34G U54A A64G | < 1e-05 | < 1e-05 | –
G41A G63U U65G C70U | < 1e-05 | < 1e-05 | –
G40U U45C | 0.000101 ± 2.7e-05 | 0.000729 ± 0.00014 | 0.000329 ± 7e-05
U31A G37U U47A U54C U69G | 5.3e-05 ± 2e-05 | – | –
A6G G59A C67A | < 1e-05 | < 1e-05 | –
G13C A39C A42U | < 1e-05 | – | –
A12U G13U U46G | < 1e-05 | – | –
C8G G13C G59A U69G | < 1e-05 | – | –
A14G G29A A39G A42G G43U G62C | < 1e-05 | < 1e-05 | –
U30A G40U G60C C61A | < 1e-05 | < 1e-05 | –
G29C G40A U65G | < 1e-05 | – | –
A36U G43U U65A | < 1e-05 | < 1e-05 | –
A15G G37U C58A C70A | 6.04e-05 ± 1.8e-05 | – | –
G35C G43U A52U C61U | < 1e-05 | < 1e-05 | –
C8G G32A U46C A53U G63C | < 1e-05 | < 1e-05 | –
U45C U65C G66U C68G | < 1e-05 | < 1e-05 | –
G44C A48U C50A | < 1e-05 | – | –
G13C C16G G41A | < 1e-05 | – | –
